# Laboratory results published in patent US20250270289A1, “SEQUENCE-DEFINED POLYMERS WITH ONE OR MORE AZIDES, METHODS OF MAKING, AND METHODS OF USE THEREOF” (Yale University, priority 2021, published 2025).
# B1: ELP(0FA)GFP: ELP-GFP fusion, 10 pentadecapeptide repeats with tyrosine at the guest residue, no conjugated fatty acids (SEQ ID NO:33) (protein)
# chain: MSKGPGVPGGGVPGAGVPGYGVPGGGVPGAGVPGYGVPGGGVPGAGVPGYGVPGGGVPGAGVPGYGVPGGGVPGAGVPGYGVPGGGVPGAGVPGYGVPGGGVPGAGVPGYGVPGGGVPGAGVPGYGVPGGGVPGAGVPGYGVPGGGVPGAGVPGYGPGGGG
# Experiments:
# [1] = molecular target: mouse serum albumin (MSA) (Mus musculus, UniProt P07724); assay: Surface plasmon resonance, steady-state affinity; details: not ISAz treated; mean (s.d.) of 4-8 experiments; n.d. = no binding detected
# mouse serum albumin (MSA), sequence (P07724 25-608): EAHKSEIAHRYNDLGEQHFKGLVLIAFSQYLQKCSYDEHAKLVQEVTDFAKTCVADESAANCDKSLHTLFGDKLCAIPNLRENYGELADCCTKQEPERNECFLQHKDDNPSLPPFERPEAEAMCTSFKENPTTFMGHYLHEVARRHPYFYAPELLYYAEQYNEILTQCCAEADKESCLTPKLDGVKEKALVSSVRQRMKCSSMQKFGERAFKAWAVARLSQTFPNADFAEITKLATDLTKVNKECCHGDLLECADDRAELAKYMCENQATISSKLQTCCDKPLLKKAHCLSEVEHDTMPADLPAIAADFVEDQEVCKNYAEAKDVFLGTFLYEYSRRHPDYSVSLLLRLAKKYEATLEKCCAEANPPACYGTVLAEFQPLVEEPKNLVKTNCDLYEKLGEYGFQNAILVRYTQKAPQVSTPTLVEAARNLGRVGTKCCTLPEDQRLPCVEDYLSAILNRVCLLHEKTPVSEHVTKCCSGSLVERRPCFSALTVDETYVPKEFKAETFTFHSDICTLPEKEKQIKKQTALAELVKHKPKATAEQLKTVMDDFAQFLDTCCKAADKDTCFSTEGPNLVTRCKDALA
# [2] = Half-life from blood samples by GFP ELISA after injection; assay type: in vivo, C57BL/6 mice; details: intravenous, 50 μg, no ISAz treatment
# Protocol: The half-lives of ELP-GFP constructs were calculated from concentrations measured from blood samples collected over the course of a week. The experiments were initiated by injecting 120 μL of 10 μM ELP-GFP intravenously or subcutaneously. At indicated times, 2 μL blood was collected from a tail puncture, and diluted 1:25 in heparin tubes. The blood sample was vortexed briefly and cells were pelleted by centrifugation (2 min at 14,000 g). The soluble fraction was collected and frozen at −20° C. until analysis. ELP-GFP concentrations of the samples were determined using a GFP ELISA Kit (Abcam, cat. #ab171581). The samples were diluted in PBS as needed, to ensure that the concentration fell within the quantifiable range of the standard curve.
# Next, experiments were designed to determine if the tighter binding affinity translates into prolonged half-life in C57BL/6J mice. A total of 50 μg of each protein variant (10 μM in PBS) was injected intravenously, and blood was collected after 1, 4, 8, 16 and 24 hours, followed by daily collections through seven days. The blood levels of ELP(nFA)-GFP constructs were measured using a GFP-specific ELISA, and their pharmacokinetic profiles were calculated (see FIGS. 7F and 7G).
molecule,measurement,setting,value
B1,KD MSA,[1],no detectable binding
same,half-life,[2],1.7 h
